This is an account of results in the nanobody polyreactivity screen of Harvey et al. (2022).

A short description of the series: yeast display, Sf9 membrane polyspecificity reagent, FACS + sequencing; frameworks hold sequencing errors. In short, it runs like this:
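Using colony PCR, genes from sorted yeast display clones were amplified, then sequenced on MiSeq at 2 × 250 and filtered by CDR length. The clones had been stained with 10% biotinylated, detergent-solubilized Sf9 membrane reagent for 1 hour at 4 °C and sorted by FACS into low and high (top ~1%) gates on anti-HA and streptavidin fluorescence. Polyreactivity labels come from the gate of origin.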
Take “QVQLVESGGGLVQAGGSLRLSCAASGRTFRTYAMGWYRQAPGKERELVASISVGGGSTYYADSVKGRFTISRDNAKNTVYLQMNSLKPEDTAVYYCAVRSYSPRSRGMGYWGQGTQVTVSS”: the “polyreactivity (PSR sort gate)” value is on record as “high polyreactivity”. As for “QVQLVESGGGLVQAGGSLRLSCAASGRTFRTYTMGWYRQAPGKEREFVAAIDRTGGSTYYADSVKGRFTISRDNAKNTVYLQMNSLKPEDTAVYYCAARFGSGFNYWGQGTQVTVSS”, the entry is “high polyreactivity”; as for “QVQLVESGGGLVQAGGSLRLSCAASGRTFRTYVMGWYRQAPGKERELVAAITWSGGRTYYADSVKGRFTISRDNAKNTVYLQMNSLKPEDTAVYYCATQPTYYLRSYGLDYWGQGTQVTVSS”, “high polyreactivity”; as for “QVQLVESGGGLVQAGGSLRLSCAASGRTFRVYAMGWYRQAPGKERELVAAISGSGGSTYYADSLKGRFTISRDNAKNTVYLQMNSLKPDDTAVYYCAARYFGPGWRDRDYNYWAQGTQVTVSS”, “high polyreactivity”. As for “QVQLVESGGGLVQAGGSLRLSCAASGRTFRVYAMGWYRQAPGKERELVATITSSGGSTYYADSVKGRLTISRDNAMNTVDLQMNSLKPEDTAGYYCNVSVYYKYVSSYYYWGQGTQVTVSS”, the entry is “low polyreactivity”. The same measure for “QVQLVESGGGLVQAGGSLRLSCAASGRTFRVYAMGWYRQAPGKERELVATLTGRGGSTDYADSVKGRFTISRDNAKNTVYLQMNILKPEDTAVYYCAAVGVSRRADPAWAGDYWGQGTQVTVSS”: “high polyreactivity”; for “QVQLVESGGGLVQAGGSLRLSCAASGRTFRWNAMGWYRPAPGKERELVAAISSGGSTYYADSVKGRFTISRDNAKNTVYLQMNSLKPEDTAVYYCNKYYVRAYDTQEYDYWGQGTQVTVSS”: “high polyreactivity”; for “QVQLVESGGGLVQAGGSLRLSCAASGRTFRWNAMGWYRQAPGKERELVATIRSGDSTNYADSVKGRFTISRDNAKNTVYLQMNSLKPEDTAVYYCAAEGVSKVYWGYFGSYDYWGQGTQVTVSS”: “low polyreactivity”. With “QVQLVESGGGLVQAGGSLRLSCAASGRTFRWNGMGWYRQAPGKERELVAVINRGGSTTYADSVKGRFTISRDNAKNTVYLQMNSLKPEDTAVYYCAKDHYYAGTWRYGYWGQGTQVTVSS”, the “polyreactivity (PSR sort gate)” value is on record as “high polyreactivity”. The same measure for “QVQLVESGGGLVQAGGSLRLSCAASGRTFRWYAMGWYRQAPGKERELVAAINPGGSTNYADSVKGRFTISRDNAKNSVYLQMNSLKPEDTAVYYCNAAGYDALTHNYYWGQGTQVTVSS”: “low polyreactivity”.

For the sequence “QVQLVESGGGLVQAGGSLRLSCAASGRTFRWYAMGWYRQAPGKERELVAAITSDGSTYYADSVKGRFTISRDNAKNTVYLQMNSLKPEDTAVYYCNAAGRYAFPFGYNYWGQGTQVTVSS”, the “polyreactivity (PSR sort gate)” value is “high polyreactivity”. As to “QVQLVESGGGLVQAGGSLRLSCAASGRTFRWYAMGWYRQAPGKERELVAAITSSSSTNYADSVKGRFTISRDNAKNTVYLQMNSLKPEDTAVYYCAKGWNWYDLGESGYWGQGTQVTVSS”, the “polyreactivity (PSR sort gate)” value is recorded as “low polyreactivity”. As for “QVQLVESGGGLVQAGGSLRLSCAASGRTFRWYAMGWYRQAPGKERELVADISSVGSTDYADSVKGRFTISRDNAKNTVYLQMNSLKPEDTAVYDCAADFSPRRYHNRSFGYWGHGTQVTVSS”, the entry is “low polyreactivity”; as for “QVQLVESGGGLVQAGGSLRLSCAASGRTFRWYAMGWYRQAPGKETELVAAINPGGSTNYADSVKGRFTISRDNAKNTVYLQMNSLKPEDTAVYYCNAAGYDALTHNYYWGQCTQVTVSS”, “low polyreactivity”; as for “QVQLVESGGGLVQAGGSLRLSCAASGRTFRWYTMGWYRQAPGKERELVAAITSRGGSTYADSVKGRFTISRDNAKNTVYLQMNSMKPEDTAVYYCNAARTYQYDYWGQGTQVTVSS”, “high polyreactivity”.

Turning to “QVQLVESGGGLVQAGGSLRLSCAASGRTFRYNAMGWYRQAPGKERDLVAAISYSGGRTNYADSVKGRFTISRDNAKNTVYLQMNSLKPEDTAVYDCATGYAVYLSRRDYWGQGTQVTVSS”, the “polyreactivity (PSR sort gate)” value is recorded as “high polyreactivity”. As for “QVQLVESGGGLVQAGGSLRLSCAASGRTFRYNAMGWYRQAPGKERELVAAISTRGGSTYYADSVKGRFTISRDNAKNTVYLQMNSLKPEDTAVYYCAVTPRIPGHFEDYYWGQGTQVTVSS”, the entry is “low polyreactivity”; as for “QVQLVESGGGLVQAGGSLRLSCAASGRTFRYNAMGWYRQAPGKERELVAGITYNGGSTSYADSVKGRFTISRDNAKNTVYLQMNSLKPEDTAVYYCNVVYNYYGRFGSWGQGTQVTVSS”, “high polyreactivity”. Regarding “QVQLVESGGGLVQAGGSLRLSCAASGRTFRYNDMGWYRQAPGKERELVADITFSGGNTYYADSVKGRFTISRVNAKNTVYLQMNSLKPEDTAVYYCAKRRYYTGGMDYWVQGTQVTVSS”, the “polyreactivity (PSR sort gate)” value is given as “low polyreactivity”.

As to “QVQLVESGGGLVQAGGSLRLSCAASGRTFRYNTMGWYRPAPGKERELVAAISSGGGRTYYADSVKGRFTISRDNAKNTVYLQMNSLIPEDTAVYYCAADRYFRSRRSYEYWGQGTQVTVSS”, the “polyreactivity (PSR sort gate)” value is on record as “low polyreactivity”.

Turning to “QVQLVESGGGLVQAGGSLRLSCAASGRTFRYNTMGWYRQAPGKERELVAAITRSGGTTYYADSVKGRFTISRDNAKNTVYLQMNSLKPEDTSVYYCAAEGQAVRKSARDVFFEEFDYWGHGTQVTVSS”, the “polyreactivity (PSR sort gate)” value is given as “low polyreactivity”.

Consider “QVQLVESGGGLVQAGGSLRLSCAASGRTFRYYAMGWSRQAPGKERELVASITSGGRTYYADSVKGRFTISRDNAKNTVYLQMNSLKPEDTAVYYCAADTPVTASSPPSDYWGQGTQVTVSS”, for which the “polyreactivity (PSR sort gate)” value is recorded as “high polyreactivity”.

For “QVQLVESGGGLVQAGGSLRLSCAASGRTFRYYAMGWYRPAPGKERELVATITGSGGSTYYADSVKGRFTISRDNAKNTVYLQMNSLKPEDTAVYYCNARKVRYPYRWYDYWGQGTQVTVSS”, the “polyreactivity (PSR sort gate)” value is on record as “high polyreactivity”.

“QVQLVESGGGLVQAGGSLRLSCAASGRTFRYYAMGWYRQAPGKERELVAAISSRGNTYYADSVKGRFTISRDNAKNTVYLQMNSLKPEDTAVYYCAAYVYRVQYDFDYWGQGTQVTVSS”: the “polyreactivity (PSR sort gate)” value is “high polyreactivity”. As for “QVQLVESGGGLVQAGGSLRLSCAASGRTFRYYAMGWYRQAPGKERELVAAITGSGGSTYYADSVKGRFTISRDNAKNTVYLQMHSLKPEDTAVYYCNTYLSRWSGERDYWGQGTQVTVSS”, the entry is “high polyreactivity”; as for “QVQLVESGGGLVQAGGSLRLSCAASGRTFRYYAMGWYRQAPGKERELVAGISSSGRTYYADSVKGRFTISRDNAKNTVYLQMNSLKPEDTAVYYCNAVYWPVRPVDRHDYWGQGTQVTVSS”, “high polyreactivity”; as for “QVQLVESGGGLVQAGGSLRLSCAASGRTFRYYAMGWYRQAPGKERELVASISSTGGNTYYADSVKGRFTISRDNAKNTVYLQMNSLKPEDTAVYYCAAGAWTRGQYYYWGQGTQVTVSS”, “high polyreactivity”.

Take “QVQLVESGGGLVQAGGSLRLSCAASGRTFRYYAMGWYRQAPGKERELVASITSGGRTYYADSVKGRFTISRDNAKNTVYLQMNSLKPEDTAVYYCAADRFGIGGKRGNDYWGQGTQVTVSS”: the “polyreactivity (PSR sort gate)” value is “high polyreactivity”. As for “QVQLVESGGGLVQAGGSLRLSCAASGRTFRYYAMGWYRQAPGKEREWDAAISRGDSTHYADSVKGRFTISRDNAKNSVYLQMNSLKPEDTEVYYCAAYRGRSVDRQPYYWGQGTQVTVSS”, the entry is “high polyreactivity”; as for “QVQLVESGGGLVQAGGSLRLSCAASGRTFRYYAMGWYRQAPGKESELVAAIRTRGASTYYADSVKGRFTISRDNAKNTVYLQMNSLKPEDTAVYYCAKRAHFSSARHVYYIYDYWGQGTQVTVSS”, “low polyreactivity”. “QVQLVESGGGLVQAGGSLRLSCAASGRTFRYYAMGWYRQAPGKVRELVAAISWNGANTYYADSVKGRFTISRDNAKNTVYLQMNSLKPEDTAVYYCAATYYRWKGYDYWGQGTQVTVSS”: the “polyreactivity (PSR sort gate)” value is “high polyreactivity”. On to “QVQLVESGGGLVQAGGSLRLSCAASGRTFRYYSMGWYRQAPGKERELVATITGSGGSTYYADSVKGRFTISRDNAKNTVYLQMNSLKPEDTAVYYCNARKVRYPYRWYDYWGQGTQVTVSS”, for which the “polyreactivity (PSR sort gate)” value is recorded as “high polyreactivity”. On to “QVQLVESGGGLVQAGGSLRLSCAASGRTFRYYVMGWYRQAPGKERELVAAINRRGDNTYYADSVKGRLTISRDNAKNTVYLQMNSLKPEDTAVYYCAARREPYQYNQYYSWGQGTQVTVSS”, for which the “polyreactivity (PSR sort gate)” value was “high polyreactivity”. Turning to “QVQLVESGGGLVQAGGSLRLSCAASGRTFRYYVMGWYRQAPGKERELVAAISRTGGNTYYADSVKGRFTISRDNAKNTVYLQMNSLKPEDTAVYYCNTVRRPSSWRYDYWGQGTQVTVSS”, the “polyreactivity (PSR sort gate)” value is given as “high polyreactivity”. The same measure for “QVQLVESGGGLVQAGGSLRLSCAASGRTFSANAMGWYRQAPGKERELVATISSGGRTNYADSVKGRFTISRDNAMNTVYLQMNSLKPEDTAVYYCAADFDYAYWDTTYDYWGQGTQVTVSS”: “low polyreactivity”; for “QVQLVESGGGLVQAGGSLRLSCAASGRTFSAYAMGWYRQAPGKERELVARITSVDSTNYADSVKGRFTISRDNAKNTVYLQMNSLKPEDTAVYYCNATFGYPFVDYDDYWGQGTQVTGSS”: “low polyreactivity”; for “QVQLVESGGGLVQAGGSLRLSCAASGRTFSAYAMGWYRQAPGKERELVARITSVDSTNYADSVKGRFTISRDNAKNTVYLQMNSLKPEDTAVYYCNATFGYPFVEYDDYWGQGTQVTVSS”: “low polyreactivity”. As for “QVQLVESGGGLVQAGGSLRLSCAASGRTFSDYVMGWYRQAPGKERELVAAINIGGGSTYYADSVKGRFTISRDNAKNTVYLQMNSLKPEDTAVYYCAAESAGSYLDYYWAYGYWGQGTQVTVSS”, the entry is “low polyreactivity”.

For the sequence “QVQLVESGGGLVQAGGSLRLSCAASGRTFSENAMGWYRQAPGKERELVAAISGSGGRTYYADSVKGRFTISRDNAKNTVYLQMNRLKPEDTAVYYCAKVTRYGSTYDYWGQGTQVTVSS”, the “polyreactivity (PSR sort gate)” value was “high polyreactivity”. The same measure for “QVQLVESGGGLVQAGGSLRLSCAASGRTFSFYAMVWYRQAPGKERELVAGIDWDDGSTSYADSVKGRFTISRDNAKNTVYLQMNSLKQEDTAVCYCAADIGYDVYNDYDYWGQGTQVTVSS”: “low polyreactivity”; for “QVQLVESGGGLVQAGGSLRLSCAASGRTFSFYDMGWYRQAPGKERELVAAINSGSSTYYADSVKGRFTISRDNANNTVYLQMNSLKPEDTEVYYCAAEPYFWWQNEYWGQGTQVTVSS”: “high polyreactivity”.
